Results reported in PMC3078890, “Sponge non-metastatic Group I Nme gene/protein - structure and function is conserved from sponges to humans” (BMC Evolutionary Biology, 2011).

Molecular target: the molecule itself
Test: cross-linking; 8 ug protein in PBS at room temperature, 25 mM glutaraldehyde for 5 min, quenched with 0.2 M Tris-HCl pH 7.5; 12.5% SDS-PAGE, Coomassie staining

B1: sponge NmeGp1Sd protein (Suberites domuncula Group I Nme), recombinant (natural protein, UniProt Q5DIW9 1-151, looked up)
chain: MTTERTYIMIKPDGVQRGLMGDIIKRFEQKGFKMVAMKFMQPSEKLLSEHYADLSKKPFFPGLVKFMATSPVCCMVWEGQGAVATGRQMLGETDPAKSKPGTIRGDFCIHIGRNICHGSDSVESANKEIALWFKPEELVDWTPTEQQWIYE
notes: NmeGp1Sd (formerly Nm23-SD1), Group I Nme / nucleoside diphosphate kinase of the marine sponge Suberites domuncula; cDNA cloned into pET15b (NdeI/BamHI) with primers from the ATG start codon to the stop codon; Cloned downstream of the thrombin site of pET15b; residues of the vector may remain at the N-terminus after cleavage; also called Nm23-SD1; not shown: His6, N-terminal, cleaved
stoichiometry N: 6
